# Molecular target: 6His-S-Importin β(1-876), full-length WT human importin β (human, UniProt Q14974 1-876)
# Assay: FRET; displacement of importin β-bound Rango
# Sequence of 6His-S-Importin β(1-876), full-length WT human importin β (Q14974 whole entry): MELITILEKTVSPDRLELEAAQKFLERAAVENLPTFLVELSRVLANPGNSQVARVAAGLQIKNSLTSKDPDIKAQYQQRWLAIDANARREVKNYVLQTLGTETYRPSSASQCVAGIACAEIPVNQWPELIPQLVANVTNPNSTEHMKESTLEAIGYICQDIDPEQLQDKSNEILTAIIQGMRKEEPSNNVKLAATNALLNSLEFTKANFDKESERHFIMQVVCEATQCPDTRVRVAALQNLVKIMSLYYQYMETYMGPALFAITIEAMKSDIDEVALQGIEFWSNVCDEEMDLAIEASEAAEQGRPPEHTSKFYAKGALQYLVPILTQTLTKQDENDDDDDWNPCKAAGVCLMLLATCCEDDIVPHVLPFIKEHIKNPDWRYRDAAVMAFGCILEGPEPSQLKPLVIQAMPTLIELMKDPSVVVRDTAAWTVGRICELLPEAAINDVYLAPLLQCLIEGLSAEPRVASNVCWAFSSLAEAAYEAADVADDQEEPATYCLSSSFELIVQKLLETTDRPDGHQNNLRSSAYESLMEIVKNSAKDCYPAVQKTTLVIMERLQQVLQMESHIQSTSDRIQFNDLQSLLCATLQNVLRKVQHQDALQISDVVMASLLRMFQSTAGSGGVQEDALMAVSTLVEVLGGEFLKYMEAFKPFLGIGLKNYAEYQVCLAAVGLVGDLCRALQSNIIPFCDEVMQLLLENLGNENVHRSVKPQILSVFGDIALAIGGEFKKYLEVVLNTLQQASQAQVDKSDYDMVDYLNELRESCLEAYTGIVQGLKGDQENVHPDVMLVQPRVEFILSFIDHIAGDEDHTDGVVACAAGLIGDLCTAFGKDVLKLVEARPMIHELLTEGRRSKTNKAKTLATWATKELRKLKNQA
binder,measurement,value
PRPRPRPRPRPRPRPRPRPRKC,Kd,8.2 nM
